Reference: US20200405868A1, “GEL-FORMING POLYPEPTIDES” (priority 2018, published 2020)
One block for each substance: values may come before it.

Key:
[1] = biological target: melanocortin receptor 4 (MC4R) (UniProt P32245); experiment: cell-based or functional assay
[2] = biological target: melanocortin receptor 1 (MC1R) (UniProt Q01726); experiment: cell-based or functional assay
[3] = biological target: bradykinin receptor 2 (BDKRB2) (UniProt P30411); experiment: cell-based or functional assay
[4] = biological target: FITC-labled GnRH molecule (a peptide) (UniProt P01148); experiment: Centricon filter release assay: FITC-GnRH that passed into the lower chamber with nongel-forming peptide at 1 mg/100 ml (control without carrier 72.50)
[5] = biological target: FITC-labled GnRH molecule (a peptide) (UniProt P01148); experiment: Centricon filter release assay: FITC-GnRH that passed into the lower chamber with nongel-forming peptide at 1 mg/10 ml (control without carrier 72.50)
PTH receptor 1 (PTHR1) = PTH receptor 1 (PTHR1) (UniProt Q03431); experiment: cell-based or functional assay
[6] = biological target: GnRH receptor (GnRHR or LHRHR) (UniProt P30968); experiment: cell-based or functional assay
[7] = biological target: kappa opioid receptor (OPRK1) (UniProt P41145); experiment: cell-based or functional assay
kappa opioid receptor (OPRK1), sequence (P41145 whole entry): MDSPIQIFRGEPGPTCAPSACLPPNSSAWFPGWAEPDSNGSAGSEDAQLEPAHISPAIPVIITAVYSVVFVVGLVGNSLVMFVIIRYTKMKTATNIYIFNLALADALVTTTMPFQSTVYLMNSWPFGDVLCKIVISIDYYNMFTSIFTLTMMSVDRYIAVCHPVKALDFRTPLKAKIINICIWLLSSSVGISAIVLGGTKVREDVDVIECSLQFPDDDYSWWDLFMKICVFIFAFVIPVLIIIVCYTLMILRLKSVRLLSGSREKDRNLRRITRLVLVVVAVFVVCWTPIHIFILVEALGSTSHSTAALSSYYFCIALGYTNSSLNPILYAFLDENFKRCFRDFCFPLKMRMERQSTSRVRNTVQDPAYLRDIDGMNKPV

bradykinin receptor 2 (BDKRB2), sequence (P30411 whole entry): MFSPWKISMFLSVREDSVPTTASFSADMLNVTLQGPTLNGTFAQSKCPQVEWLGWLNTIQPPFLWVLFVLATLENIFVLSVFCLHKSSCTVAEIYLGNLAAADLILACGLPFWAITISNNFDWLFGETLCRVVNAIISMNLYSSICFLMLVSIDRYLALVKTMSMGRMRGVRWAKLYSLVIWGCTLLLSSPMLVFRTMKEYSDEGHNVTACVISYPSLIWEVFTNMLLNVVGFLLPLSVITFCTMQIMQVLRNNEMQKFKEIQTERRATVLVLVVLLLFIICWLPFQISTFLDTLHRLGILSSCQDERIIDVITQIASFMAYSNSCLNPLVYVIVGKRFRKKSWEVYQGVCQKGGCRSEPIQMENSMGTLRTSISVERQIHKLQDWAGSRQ
melanocortin receptor 1 (MC1R), sequence (Q01726 whole entry): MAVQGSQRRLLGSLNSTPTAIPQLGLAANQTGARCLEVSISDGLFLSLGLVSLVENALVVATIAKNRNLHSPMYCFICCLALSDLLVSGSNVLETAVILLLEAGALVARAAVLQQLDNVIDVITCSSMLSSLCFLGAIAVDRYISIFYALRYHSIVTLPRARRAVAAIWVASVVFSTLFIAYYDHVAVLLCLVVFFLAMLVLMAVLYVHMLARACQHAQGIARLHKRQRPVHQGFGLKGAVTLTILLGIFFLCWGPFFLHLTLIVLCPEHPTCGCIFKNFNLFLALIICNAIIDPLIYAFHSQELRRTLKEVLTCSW
GnRH receptor (GnRHR or LHRHR), sequence (P30968 whole entry): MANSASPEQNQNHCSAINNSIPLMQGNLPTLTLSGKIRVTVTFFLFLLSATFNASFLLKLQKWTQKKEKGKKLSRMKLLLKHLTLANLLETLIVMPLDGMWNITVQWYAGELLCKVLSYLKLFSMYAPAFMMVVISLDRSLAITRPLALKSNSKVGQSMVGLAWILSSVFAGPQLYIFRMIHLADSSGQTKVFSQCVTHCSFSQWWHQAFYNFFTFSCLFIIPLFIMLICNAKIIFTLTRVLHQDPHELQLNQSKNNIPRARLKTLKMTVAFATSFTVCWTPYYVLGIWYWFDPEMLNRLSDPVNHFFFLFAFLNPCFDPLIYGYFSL
melanocortin receptor 4 (MC4R), sequence (P32245 whole entry): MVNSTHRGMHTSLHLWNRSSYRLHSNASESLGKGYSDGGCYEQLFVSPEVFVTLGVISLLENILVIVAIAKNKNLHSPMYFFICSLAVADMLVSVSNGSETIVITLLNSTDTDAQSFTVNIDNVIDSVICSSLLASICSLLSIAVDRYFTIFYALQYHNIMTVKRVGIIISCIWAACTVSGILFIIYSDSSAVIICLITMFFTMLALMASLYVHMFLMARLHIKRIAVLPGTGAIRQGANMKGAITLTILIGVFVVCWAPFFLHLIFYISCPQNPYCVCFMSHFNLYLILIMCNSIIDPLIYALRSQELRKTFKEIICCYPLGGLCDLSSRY
PTH receptor 1 (PTHR1), sequence (Q03431 27-593 limits assumed): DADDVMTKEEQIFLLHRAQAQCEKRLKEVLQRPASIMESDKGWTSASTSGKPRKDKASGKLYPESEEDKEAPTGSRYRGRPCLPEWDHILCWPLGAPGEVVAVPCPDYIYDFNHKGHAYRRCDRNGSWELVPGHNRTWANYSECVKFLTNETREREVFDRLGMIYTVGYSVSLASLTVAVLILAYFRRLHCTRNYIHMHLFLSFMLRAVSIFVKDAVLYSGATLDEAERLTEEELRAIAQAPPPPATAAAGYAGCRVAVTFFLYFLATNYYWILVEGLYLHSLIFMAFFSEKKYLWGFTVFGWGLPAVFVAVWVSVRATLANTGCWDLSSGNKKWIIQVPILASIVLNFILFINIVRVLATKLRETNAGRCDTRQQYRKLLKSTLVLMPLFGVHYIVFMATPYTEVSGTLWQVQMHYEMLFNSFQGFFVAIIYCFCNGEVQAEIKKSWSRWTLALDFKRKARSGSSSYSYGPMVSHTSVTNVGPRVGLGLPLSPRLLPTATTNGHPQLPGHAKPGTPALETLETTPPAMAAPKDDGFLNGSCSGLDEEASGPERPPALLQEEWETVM

EC50 (nM), MC4R cAMP agonistic assay [1]: 0.15 nM
Max Activity % of positive control, MC4R cAMP agonistic assay (% of positive control) [1]: 115
Substance: SEQ ID NO: 228, Pal-HSYRC-(D-Ala)-H-(D-Phe)-RWC-NH2, conjugated gel-forming setmelanotide analog (peptide)

EC50 (nM), PTHR1 cAMP agonistic assay (PTH receptor 1 (PTHR1)): 0.8 nM
Max Activity % of positive control, PTHR1 cAMP agonistic assay (% of positive control) (PTH receptor 1 (PTHR1)): 101
Substance: PTH(1-34) peptide (positive control) (from UniProt P01270 32-65)

IC50 (nM), GnRHR calcium flux antagonistic assay [6]: 0.08 nM
Max Activity % of positive control, GnRHR calcium flux antagonistic assay (% of positive control) [6]: 91.4
Substance: Cetrorelix (positive control) (peptide)

EC50 (nM), OPRK1 cAMP agonistic assay [7]: 272 nM
Max Activity % of positive control, OPRK1 cAMP agonistic assay (% of positive control) [7]: 62
Substance: SEQ ID NO: 214, Pal-SSPHSY-miniPEG-(D-Phe)-(D-Phe)-Trp-(D-Arg), gel-forming kappa opioid receptor agonist (peptide)

The remaining lines, values behind:

Substance: Melanotan II peptide (positive control)
EC50 (nM), MC4R cAMP agonistic assay [1]: 2 nM
Max Activity % of positive control, MC4R cAMP agonistic assay (% of positive control) [1]: 101
EC50 (nM), MC1R cAMP agonistic assay [2]: 0.56 nM
Max Activity % of positive control, MC1R cAMP agonistic assay (% of positive control) [2]: 102

Substance: SEQ ID NO: 224, Pal-HSYS-Nle-EH-(D-Phe)-RWGKPV-NH2, conjugated gel-forming Afamelanotide (melanotan I) analog (peptide)
EC50 (nM), MC1R cAMP agonistic assay [2]: < 0.05 nM
Max Activity % of positive control, MC1R cAMP agonistic assay (% of positive control) [2]: 120

Substance: SEQ ID NO: 234, Pal-HSY-(D-Arg)-Arg-Pro-Hyp-Gly-Thi-Ser-(D-Tic)-Oic-Arg-NH2, conjugated bradykinin receptor antagonist (peptide)
IC50 (nM), BDKRB2 arrestin antagonistic assay [3]: 53.3 nM
Max Activity % of positive control, BDKRB2 arrestin antagonistic assay (% of positive control) [3]: 112

Substance: SEQ ID NO:133, Pal-VGSNTY-NH2, nongel-forming peptide
Fluorescent Reading (average of duplicates) [4]: 71
Fluorescent Reading (average of duplicates) [5]: 55.4

Substance: SEQ ID NO: 203, Pal-HSY-(D-Nal)-(D-Cpa)-(D-Pal)-SY-(D-Cit)-LRP-(D-Ala)-NH2, gel-forming GnRHR antagonist analog (peptide)
IC50 (nM), GnRHR calcium flux antagonistic assay [6]: < 0.51 nM
Max Activity % of positive control, GnRHR calcium flux antagonistic assay (% of positive control) [6]: 109

Substance: HOE140 (a BKR2 antagonist), (D-Arg)-Arg-Pro-Hyp-Gly-Thi-Ser-(D-Tic)-Oic-Arg (peptide)
IC50 (nM), BDKRB2 arrestin antagonistic assay [3]: 132 nM
Max Activity % of positive control, BDKRB2 arrestin antagonistic assay (% of positive control) [3]: 100
